According to publication PMC5399442, “Fatty acid synthase cooperates with protrudin to facilitate membrane outgrowth of cellular protrusions” (Scientific Reports, 2017):
Positions count from the first letter of the chain named.

B1: wild-type protrudin with a C-terminal myc tag (natural protein, human, UniProt Q5T4F4-2 1-404, looked up)
chain: MQTSEREGSGPELSPSVMPEAPLESPPFPTKSPAFDLFNLVLSYKRLEIYLEPLKDAGDGVRYLLRWQMPLCSLLTCLGLNVLFLTLNEGAWYSVGALMISVPALLGYLQEVCRARLPDSELMRRKYHSVRQEDLQRGRLSRPEAVAEVKSFLIQLEAFLSRLCCTCEAAYRVLHWENPVVSSQFYGALLGTVCMLYLLPLCWVLTLLNSTLFLGNVEFFRVVSEYRASLQQRMNPKQEEHAFESPPPPDVGGKDGLMDSTPALTPTEDLTPGSVEEAEEAEPDEEFKDAIEEDDEGAPCPAEDELALQDNGFLSKNEVLRSKVSRLTERLRKRYPTNNFGNCTGCSATFSVLKKRRSCSNCGNSFCSRCCSFKVPKSSMGATAPEAQRETVFVCASCNQTLSK
notes: protrudin (ZFYVE27), human, from cDNA; also called WT-protrudin; protrudin-myc; source: HEK293T, transfected (pcDNA3.1-protrudin-myc), in lysate; not shown: c-Myc, C-terminal, kept
B2: protrudin with DiZPK incorporated at site D134, C-terminal myc tag (natural protein, human, UniProt Q5T4F4-2 1-404, looked up)
chain: B1 chain with D134K
modifications: DiZPK (3-(3-methyl-3H-diazirin-3-yl)-propamino-carbonyl-Nε-L-lysine) at position 134
notes: protrudin (ZFYVE27), human; codon of D134 changed to the amber codon (TAG) and read as DiZPK, a lysine derivative; The new residue is written as K because DiZPK is an Nε-modified lysine; source: HEK293T, transfected with the MbPylRS/MbtRNACUA pair, cultured with DiZPK, in lysate; not shown: c-Myc, C-terminal, kept

Tests used:
[1] = target: the molecule itself; test: SDS-resistant dimer on SDS-PAGE with immunoblot; HEK293T cells expressing WT-protrudin exposed to UV light (365 nm) as control; SDS-PAGE and immunoblot with anti-Myc antibody
[2] = target: the molecule itself; test: cross-linking; photo-crosslinking by DiZPK in living HEK293T cells, 48 h after transfection, UV 365 nm for 10 min; SDS-PAGE and immunoblot with anti-Myc antibody

Protein	stoichiometry N [1]	stoichiometry N [2]
B1	2	–
B2	–	2
